Experimental data published in PMC13132546, “The FAM53C/DYRK1A axis regulates the G1/S transition of the cell cycle” (eLife, 2026).

Molecular target: T1, DYRK1A (recombinant, N-terminally biotinylated) (UniProt Q13627 1-763, biotin on the N-terminus (sortase labelling with a synthetic biotin-LPETGG peptide onto the N-terminal glycine left after TEV cleavage))
T1 construct: DYRK1A; also called Dual-specificity Tyrosine Phosphorylation-regulated Kinase 1 A; biotinylated DYRK1A; not shown: GST, N-terminal, cleaved; biotin-LPETGG peptide (sortase-ligated), N-terminal, kept
Test: BLI; Octet-RED96e; 200 nM biotinylated DYRK1A loaded on streptavidin biosensor tips, dipped into FAM53C analyte at varied concentrations; 25 mM Tris pH 8.0, 150 mM NaCl, 1 mM DTT, 2 mg/mL BSA, 0.2% Tween; double reference-subtracted; rates from a 1:1 model, KD from steady-state analysis
Details: both partners purified

- Kd: 3.3 ± 0.5 mM
B1: FAM53C (recombinant) (natural protein, UniProt Q9NYF3 1-392, looked up)
chain: MITLITEQLQKQTLDELKCTRFSISLPLPDHADISNCGNSFQLVSEGASWRGLPHCSCAEFQDSLNFSYHPSGLSLHLRPPSRGNSPKEQPFSQVLRPEPPDPEKLPVPPAPPSKRHCRSLSVPVDLSRWQPVWRPAPSKLWTPIKHRGSGGGGGPQVPHQSPPKRVSSLRFLQAPSASSQCAPAHRPYSPPFFSLALAQDSSRPCAASPQSGSWESDAESLSPCPPQRRFSLSPSLGPQASRFLPSARSSPASSPELPWRPRGLRNLPRSRSQPCDLDARKTGVKRRHEEDPRRLRPSLDFDKMNQKPYSGGLCLQETAREGSSISPPWFMACSPPPLSASCSPTGGSSQVLSESEEEEEGAVRWGRQALSKRTLCQRDFGDLDLNLIEEN
notes: FAM53C; also called C5ORF6; source: E. coli BL21 (DE3), purified (Ni-NTA, TEV cleavage, Q Sepharose, Superdex 75)
